Test results from patent US20240400708A1.

target: feline FcRn complex (FcRn-α subunit and β-microglobulin), biotin labeled (feline); assay: SPR, pH 6

Row | Kd [nM] | Binder
1 | 86.5 | feline IgG1a T256L (antibody, part only; not given: Variable domains, not shown: another chain or arm of the molecule) constant: ASTTAPSVFPLAPSCGTTSGATVALACLVLGYFPEPVTVSWNSGALTSGVHTFPAVLQASGLYSLSSMVTVPSSRWLSDTFTCNVAHPPSNTKVDKTVRKTDHPPGPKPCDCPKCPPPEMLGGPSIFIFPPKPKDTLSISRLPEVTCLVVDLGPDDSDVQITWFVDNTQVYTAKTSPREEQFNSTYRVVSVLPILHQDWLKGKEFKCKVNSKSLPSPIERTISKAKGQPHEPQVYVLPPAQEELSRNKVSVTCLIKSFHPPDIAVEWEITGQPEPENNYRTTPPQLDSDGTYFVYSKLSVDRSHWQRGNTYTCSVSHEALHSHHTQKSLTQSPGK
2 | 22 | feline IgG1a T256Y (antibody, part only; not given: Variable domains, not shown: another chain or arm of the molecule) constant: ASTTAPSVFPLAPSCGTTSGATVALACLVLGYFPEPVTVSWNSGALTSGVHTFPAVLQASGLYSLSSMVTVPSSRWLSDTFTCNVAHPPSNTKVDKTVRKTDHPPGPKPCDCPKCPPPEMLGGPSIFIFPPKPKDTLSISRYPEVTCLVVDLGPDDSDVQITWFVDNTQVYTAKTSPREEQFNSTYRVVSVLPILHQDWLKGKEFKCKVNSKSLPSPIERTISKAKGQPHEPQVYVLPPAQEELSRNKVSVTCLIKSFHPPDIAVEWEITGQPEPENNYRTTPPQLDSDGTYFVYSKLSVDRSHWQRGNTYTCSVSHEALHSHHTQKSLTQSPGK
3 | 97.2 | feline IgG1a S252Y/Q311W/S434Y (antibody, part only; not given: Variable domains, not shown: another chain or arm of the molecule) constant: ASTTAPSVFPLAPSCGTTSGATVALACLVLGYFPEPVTVSWNSGALTSGVHTFPAVLQASGLYSLSSMVTVPSSRWLSDTFTCNVAHPPSNTKVDKTVRKTDHPPGPKPCDCPKCPPPEMLGGPSIFIFPPKPKDTLYISRTPEVTCLVVDLGPDDSDVQITWFVDNTQVYTAKTSPREEQFNSTYRVVSVLPILHWDWLKGKEFKCKVNSKSLPSPIERTISKAKGQPHEPQVYVLPPAQEELSRNKVSVTCLIKSFHPPDIAVEWEITGQPEPENNYRTTPPQLDSDGTYFVYSKLSVDRSHWQRGNTYTCSVSHEALHYHHTQKSLTQSPGK
4 | 3.71 | feline IgG1a S434V (antibody, part only; not given: Variable domains, not shown: another chain or arm of the molecule) constant: ASTTAPSVFPLAPSCGTTSGATVALACLVLGYFPEPVTVSWNSGALTSGVHTFPAVLQASGLYSLSSMVTVPSSRWLSDTFTCNVAHPPSNTKVDKTVRKTDHPPGPKPCDCPKCPPPEMLGGPSIFIFPPKPKDTLSISRTPEVTCLVVDLGPDDSDVQITWFVDNTQVYTAKTSPREEQFNSTYRVVSVLPILHQDWLKGKEFKCKVNSKSLPSPIERTISKAKGQPHEPQVYVLPPAQEELSRNKVSVTCLIKSFHPPDIAVEWEITGQPEPENNYRTTPPQLDSDGTYFVYSKLSVDRSHWQRGNTYTCSVSHEALHVHHTQKSLTQSPGK
5 | 10.9 | feline IgG1a S252Y/L314K (antibody, part only; not given: Variable domains, not shown: another chain or arm of the molecule) constant: ASTTAPSVFPLAPSCGTTSGATVALACLVLGYFPEPVTVSWNSGALTSGVHTFPAVLQASGLYSLSSMVTVPSSRWLSDTFTCNVAHPPSNTKVDKTVRKTDHPPGPKPCDCPKCPPPEMLGGPSIFIFPPKPKDTLYISRTPEVTCLVVDLGPDDSDVQITWFVDNTQVYTAKTSPREEQFNSTYRVVSVLPILHQDWKKGKEFKCKVNSKSLPSPIERTISKAKGQPHEPQVYVLPPAQEELSRNKVSVTCLIKSFHPPDIAVEWEITGQPEPENNYRTTPPQLDSDGTYFVYSKLSVDRSHWQRGNTYTCSVSHEALHSHHTQKSLTQSPGK
6 | 17.2 | feline IgG1a S252Y/S428Y (antibody, part only; not given: Variable domains, not shown: another chain or arm of the molecule) constant: ASTTAPSVFPLAPSCGTTSGATVALACLVLGYFPEPVTVSWNSGALTSGVHTFPAVLQASGLYSLSSMVTVPSSRWLSDTFTCNVAHPPSNTKVDKTVRKTDHPPGPKPCDCPKCPPPEMLGGPSIFIFPPKPKDTLYISRTPEVTCLVVDLGPDDSDVQITWFVDNTQVYTAKTSPREEQFNSTYRVVSVLPILHQDWLKGKEFKCKVNSKSLPSPIERTISKAKGQPHEPQVYVLPPAQEELSRNKVSVTCLIKSFHPPDIAVEWEITGQPEPENNYRTTPPQLDSDGTYFVYSKLSVDRSHWQRGNTYTCSVYHEALHSHHTQKSLTQSPGK
7 | 58.6 | feline IgG1a T256Q (antibody, part only; not given: Variable domains, not shown: another chain or arm of the molecule) constant: ASTTAPSVFPLAPSCGTTSGATVALACLVLGYFPEPVTVSWNSGALTSGVHTFPAVLQASGLYSLSSMVTVPSSRWLSDTFTCNVAHPPSNTKVDKTVRKTDHPPGPKPCDCPKCPPPEMLGGPSIFIFPPKPKDTLSISRQPEVTCLVVDLGPDDSDVQITWFVDNTQVYTAKTSPREEQFNSTYRVVSVLPILHQDWLKGKEFKCKVNSKSLPSPIERTISKAKGQPHEPQVYVLPPAQEELSRNKVSVTCLIKSFHPPDIAVEWEITGQPEPENNYRTTPPQLDSDGTYFVYSKLSVDRSHWQRGNTYTCSVSHEALHSHHTQKSLTQSPGK
8 | 77.4 | feline IgG1a T256N (antibody, part only; not given: Variable domains, not shown: another chain or arm of the molecule) constant: ASTTAPSVFPLAPSCGTTSGATVALACLVLGYFPEPVTVSWNSGALTSGVHTFPAVLQASGLYSLSSMVTVPSSRWLSDTFTCNVAHPPSNTKVDKTVRKTDHPPGPKPCDCPKCPPPEMLGGPSIFIFPPKPKDTLSISRNPEVTCLVVDLGPDDSDVQITWFVDNTQVYTAKTSPREEQFNSTYRVVSVLPILHQDWLKGKEFKCKVNSKSLPSPIERTISKAKGQPHEPQVYVLPPAQEELSRNKVSVTCLIKSFHPPDIAVEWEITGQPEPENNYRTTPPQLDSDGTYFVYSKLSVDRSHWQRGNTYTCSVSHEALHSHHTQKSLTQSPGK
9 | 57.6 | feline IgG1a T256P (antibody, part only; not given: Variable domains, not shown: another chain or arm of the molecule) constant: ASTTAPSVFPLAPSCGTTSGATVALACLVLGYFPEPVTVSWNSGALTSGVHTFPAVLQASGLYSLSSMVTVPSSRWLSDTFTCNVAHPPSNTKVDKTVRKTDHPPGPKPCDCPKCPPPEMLGGPSIFIFPPKPKDTLSISRPPEVTCLVVDLGPDDSDVQITWFVDNTQVYTAKTSPREEQFNSTYRVVSVLPILHQDWLKGKEFKCKVNSKSLPSPIERTISKAKGQPHEPQVYVLPPAQEELSRNKVSVTCLIKSFHPPDIAVEWEITGQPEPENNYRTTPPQLDSDGTYFVYSKLSVDRSHWQRGNTYTCSVSHEALHSHHTQKSLTQSPGK
10 | 19.5 | feline IgG1a T256V (antibody, part only; not given: Variable domains, not shown: another chain or arm of the molecule) constant: ASTTAPSVFPLAPSCGTTSGATVALACLVLGYFPEPVTVSWNSGALTSGVHTFPAVLQASGLYSLSSMVTVPSSRWLSDTFTCNVAHPPSNTKVDKTVRKTDHPPGPKPCDCPKCPPPEMLGGPSIFIFPPKPKDTLSISRVPEVTCLVVDLGPDDSDVQITWFVDNTQVYTAKTSPREEQFNSTYRVVSVLPILHQDWLKGKEFKCKVNSKSLPSPIERTISKAKGQPHEPQVYVLPPAQEELSRNKVSVTCLIKSFHPPDIAVEWEITGQPEPENNYRTTPPQLDSDGTYFVYSKLSVDRSHWQRGNTYTCSVSHEALHSHHTQKSLTQSPGK
11 | 1230 | feline IgG1a Q311W/D312P/L314K (antibody, part only; not given: Variable domains, not shown: another chain or arm of the molecule) constant: ASTTAPSVFPLAPSCGTTSGATVALACLVLGYFPEPVTVSWNSGALTSGVHTFPAVLQASGLYSLSSMVTVPSSRWLSDTFTCNVAHPPSNTKVDKTVRKTDHPPGPKPCDCPKCPPPEMLGGPSIFIFPPKPKDTLSISRTPEVTCLVVDLGPDDSDVQITWFVDNTQVYTAKTSPREEQFNSTYRVVSVLPILHWPWKKGKEFKCKVNSKSLPSPIERTISKAKGQPHEPQVYVLPPAQEELSRNKVSVTCLIKSFHPPDIAVEWEITGQPEPENNYRTTPPQLDSDGTYFVYSKLSVDRSHWQRGNTYTCSVSHEALHSHHTQKSLTQSPGK
12 | 27 | feline IgG1a Q311W/S434Y (antibody, part only; not given: Variable domains, not shown: another chain or arm of the molecule) constant: ASTTAPSVFPLAPSCGTTSGATVALACLVLGYFPEPVTVSWNSGALTSGVHTFPAVLQASGLYSLSSMVTVPSSRWLSDTFTCNVAHPPSNTKVDKTVRKTDHPPGPKPCDCPKCPPPEMLGGPSIFIFPPKPKDTLSISRTPEVTCLVVDLGPDDSDVQITWFVDNTQVYTAKTSPREEQFNSTYRVVSVLPILHWDWLKGKEFKCKVNSKSLPSPIERTISKAKGQPHEPQVYVLPPAQEELSRNKVSVTCLIKSFHPPDIAVEWEITGQPEPENNYRTTPPQLDSDGTYFVYSKLSVDRSHWQRGNTYTCSVSHEALHYHHTQKSLTQSPGK
13 | 19.3 | feline IgG1a T256M (antibody, part only; not given: Variable domains, not shown: another chain or arm of the molecule) constant: ASTTAPSVFPLAPSCGTTSGATVALACLVLGYFPEPVTVSWNSGALTSGVHTFPAVLQASGLYSLSSMVTVPSSRWLSDTFTCNVAHPPSNTKVDKTVRKTDHPPGPKPCDCPKCPPPEMLGGPSIFIFPPKPKDTLSISRMPEVTCLVVDLGPDDSDVQITWFVDNTQVYTAKTSPREEQFNSTYRVVSVLPILHQDWLKGKEFKCKVNSKSLPSPIERTISKAKGQPHEPQVYVLPPAQEELSRNKVSVTCLIKSFHPPDIAVEWEITGQPEPENNYRTTPPQLDSDGTYFVYSKLSVDRSHWQRGNTYTCSVSHEALHSHHTQKSLTQSPGK
14 | 25.2 | feline IgG1a T256W (antibody, part only; not given: Variable domains, not shown: another chain or arm of the molecule) constant: ASTTAPSVFPLAPSCGTTSGATVALACLVLGYFPEPVTVSWNSGALTSGVHTFPAVLQASGLYSLSSMVTVPSSRWLSDTFTCNVAHPPSNTKVDKTVRKTDHPPGPKPCDCPKCPPPEMLGGPSIFIFPPKPKDTLSISRWPEVTCLVVDLGPDDSDVQITWFVDNTQVYTAKTSPREEQFNSTYRVVSVLPILHQDWLKGKEFKCKVNSKSLPSPIERTISKAKGQPHEPQVYVLPPAQEELSRNKVSVTCLIKSFHPPDIAVEWEITGQPEPENNYRTTPPQLDSDGTYFVYSKLSVDRSHWQRGNTYTCSVSHEALHSHHTQKSLTQSPGK
15 | 10.6 | feline IgG1a S434T (antibody, part only; not given: Variable domains, not shown: another chain or arm of the molecule) constant: ASTTAPSVFPLAPSCGTTSGATVALACLVLGYFPEPVTVSWNSGALTSGVHTFPAVLQASGLYSLSSMVTVPSSRWLSDTFTCNVAHPPSNTKVDKTVRKTDHPPGPKPCDCPKCPPPEMLGGPSIFIFPPKPKDTLSISRTPEVTCLVVDLGPDDSDVQITWFVDNTQVYTAKTSPREEQFNSTYRVVSVLPILHQDWLKGKEFKCKVNSKSLPSPIERTISKAKGQPHEPQVYVLPPAQEELSRNKVSVTCLIKSFHPPDIAVEWEITGQPEPENNYRTTPPQLDSDGTYFVYSKLSVDRSHWQRGNTYTCSVSHEALHTHHTQKSLTQSPGK
16 | 27.7 | feline IgG1a T256R (antibody, part only; not given: Variable domains, not shown: another chain or arm of the molecule) constant: ASTTAPSVFPLAPSCGTTSGATVALACLVLGYFPEPVTVSWNSGALTSGVHTFPAVLQASGLYSLSSMVTVPSSRWLSDTFTCNVAHPPSNTKVDKTVRKTDHPPGPKPCDCPKCPPPEMLGGPSIFIFPPKPKDTLSISRRPEVTCLVVDLGPDDSDVQITWFVDNTQVYTAKTSPREEQFNSTYRVVSVLPILHQDWLKGKEFKCKVNSKSLPSPIERTISKAKGQPHEPQVYVLPPAQEELSRNKVSVTCLIKSFHPPDIAVEWEITGQPEPENNYRTTPPQLDSDGTYFVYSKLSVDRSHWQRGNTYTCSVSHEALHSHHTQKSLTQSPGK
